Drawing on US20070065439A1, this text covers Kd, koff and kon for eleven molecules.

The chains are these.
B1: 9.19.1 (antibody, human IgG4, V domains shown)
VH: QVQLVESGGGVVQPGRSLRLSCAASGFTFNNYGMHWVRQAPGKGLECVAVIWYDGGNKYYADSVKGRFAISRDNSKNTLYLQMNSLRAEDTAVYYCTAVTKLNYYYGMDVWGQRTTVTVS
VL: QSALTQPASVSGSPGQSITISCTGTSSDVGGYNYVSWYQQHPGKAPKFMIYEVSNRPSGVSNRFSGSKSGNTASLTISGLQAEDEADYYCSSYTSSSILVFGGGTKLTVL
B2: 9.2.1 (antibody, human IgG4, V domains shown)
VH: QVQLVESGGGVVQPGRSLRLSCAASGFTFNNYGMHWVRQAPGKGLECVAVIWYDGGNKYYADSVKGRFAISRDNSKNTLYLQMNSLRAEDTAVYYCTAVTTLYYYYGMDVWGQGTTVTVS
VL: QSALTQPASVSGSPGQSITISCTGTSSDVGGYNYVSWYQQHPGKAPKLMIYEVSNRPSGVSNRFSGSKSGNTASLTISGLQAEDEADYYCSSYTSSSILVFGGGTKLTVL
B3: 5.5.1 (antibody, IgG4, V domains shown)
VH: QVQLVESGGGVVQPGRSLRLSCAASGFTFSSYGMHWVRQAPGKGLEWVAVIWYDGDNKYYADSVQGRFTISRDNSKNTLYLQMNSLRPEDTAVYYCARERSSSWYFDYWGQGTLVTVSS
VL: QSALTQPASVSGSPGQSITISCTGTSSDVGSYNLVSWYQQHPGKAPKLMIYEVSKRPSGISNRFSGSKSGNTASLTISGLQAEDEADYYCCSYAGSSTWVFGGGTKLTVL
B4: 9.26.1 (antibody, human IgG4, V domains shown)
VH: QVQLVESGGGVVQPGRSLRLSCAASGFTFNNYGMHWVRQAPGKGLECVAVIWYDGGNKYYADSVKGRFAISRDNSKNTLYLQMNSLRAEDTAVYYCTAVTKLNYYYGMDVWGQGTTVTVS
VL: QSALTQPASVSGSPGQSITISCTGTSSDVGGYNYVSWYQQHPGKAPKLMIYEVSNRPSGVSNRFSGSKSGNTASLTISGLQAEDEADYYCSSYTSSSILVFGGGTKLTVL
B5: 9.11.1 (antibody, human IgG4, V domains shown)
VH: QVQLVESGGGVVQPGRSLRLSCAASGFTFSVYGMHWVRQAPGKGLEWVAVIWYDGNNKYYVDSVKGRFTISRDNSKNTLYLQLNSLRAEDTAVYYCARERSSSWYFDYWGQGTLVTVSS
VL: QSALTQPASVSGSSGQSITISCTGTSSDVGSYNLVSWYQQHPGKAPKLMIYEVSKRPSGVSNRFSGSKSGNTASLTISGLQAEDEADYYCCSYAGNSNWVFGGGTKLTVL
B6: 8.18.1 (antibody, human IgG4, V domains shown)
VH: QVQLQESGPGLVKPSETLSLTCTVSGGSVSSGGYYWSWIRQPPGKGLEWIGYFYYSGSPNYNPSLKRRIAISVDTSKNQFSLRLSSVTAADTAVYYCARDPMHYYGMDVWGQGTTVTVSS
VL: SSELTQPPSVSVFPGQTANITCSGDKLGDKFACWYQQKPGQSPVLVIYRDNKRPSGIPERFSGSNSGNTATLTISGTQAMDEADYYCQAWDSSTYVVFGGGTKLTVL
B7: 6.26.1 (antibody, human IgG4, V domains shown)
VH: QLQLQESGPGLVKPSETLSLTCTVSGGSISRSSYYWGWIRQPPGKGLEWMGNIYYSGSTHYNPSLKSRVTISVDTSKNQFSLKLSSVTAADTAVFYCAKGREYISSSGYGMDVWGQGTTVTVS
VL: SYELTQPPSVSVSPGQTASITCSGDKLGNKYVCWYQQKPGQSPVLVIFQDSRRPSGIPERFSGSNSGNTATLTISGTQAMDEADYYCQAWDTSTVIFGGGTKLTVL
B8: 4.20.1 (antibody, human IgG4, V domains shown)
VH: QVQLVESGGGVVQPGRSLRLSCAASGFTFSNYGMNWVRQAPGKGLEWVAVIWYDGNNKSEADSVKGRFTISRDNSKNTLYLQMNSLRAEDTAVYYCARDSRSGPFDYWGQGTLVTVSS
VL: EIVLTQSPDFQSVTPKEKVTITCRASQSIGSSLHWYQQKPDQSPKLLIKFASQSFSGVPSRISGSGSGTDFTLTINSLEAEDAATYYCHQSSSLPFTFGPGTKVDIK
B9: 8.50.1 (antibody, human IgG4, V domains shown)
VH: QVQLQESGPGLVKPSETLSLTCTVSGGSISSDYWSWIRQPAGKGLEWIGRFYNSGRTNYRPSLKSRITMSVDTSKNQFSLKLSSVTAADTAVYYCARDMYSGRGNWYFDLWGRGTLVTVS
VL: SYELTQPPSVSVSPGQTARITCSGDALPKKYAYWYQQKSGQAPVLVIYEDSKRPSGIPERFSGSSSGTMATLTISGAQVEDEADYYCYSTDSSDNHRVFGGGTKLTVL
B10: 9.31.1 (antibody, human IgG4, V domains shown)
VH: QVQLVESGGGLVKPGGSLRLSCAASGFTFSDYYMSWIRQAPGKGLEWVSYIRSSGSTIYYADSVKGRFTISRDNAKNSLYLQMNSLRAEDTAVYYCARTPYSGRYHWYFDLWGRGTLVTVS
VL: SYELTQPPSVSVSPGQTARITCSGDALPIKYAYWYQHKSGQAPVLVIYEDSKRPSGIPERFSGSSSGTMATLTISGAQVEDEADYYCYSTDSSGNHRVFGGGTKLTVL
B11: 5.36.1 (antibody, human IgG4, V domains shown)
VH: QVQLQQSGPGLVKPSQTLSLTCAISGDSVSSNSAAWNWIRQSPSRGLEWLGRTYYRSKWYNDYAVSVKSRITINPDTSKNQFSLQLNSVTPEDTAVYYCAREEQQLVRYYYYYGMDVWGQGTTVTVS
VL: DIVMTQTPLSLSVTPGQPASISCKSSQSLLHSDGRTYLYWYLQRPGQPPQLLIYEASYRFSGVPDRFSGSGSGTDFTLKISRVEAEDVGIYYCMQSIQLPRTFGQGTRLEIK

This test deals with Cynomolgus monkey IL-1β (cynomolgus monkey). Briefly: Biacore low-res, mAb captured, cyno IL-1β 117 nM, 25C. In general terms: In SPR one partner is held on a chip, and binding of the other changes the refractive index at the surface.
Cynomolgus monkey IL-1β (cynomolgus monkey), sequence (P48090 117-269 limits assumed): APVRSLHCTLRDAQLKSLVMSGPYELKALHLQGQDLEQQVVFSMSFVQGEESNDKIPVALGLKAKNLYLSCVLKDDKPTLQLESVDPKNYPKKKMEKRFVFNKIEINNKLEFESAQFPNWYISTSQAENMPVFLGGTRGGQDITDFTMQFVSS
By Kd is commonly meant the constant that tells how readily two partners part at equilibrium. As usually defined, the koff is a measure of how fast the partners let go of each other. By kon is commonly meant a measure of how fast the partners come together. B1 yielded a Kd of 0.5 nM, a koff of 0.00012 s⁻¹ and a kon of 260000 M⁻¹ s⁻¹.
In the case of B2, the Kd amounted to 4.5 nM, the koff came to 0.0014 s⁻¹ and the kon is 310000 M⁻¹ s⁻¹.
For B3 the same measures were 4.6 nM, 0.0011 s⁻¹ and 240000 M⁻¹ s⁻¹.
For B4 the same measures were 1.3 nM, 0.0002 s⁻¹ and 150000 M⁻¹ s⁻¹.
For B5 the same measures were 0.8 nM, 0.00027 s⁻¹ and 330000 M⁻¹ s⁻¹.
B6 showed a Kd of 0.8 nM, a koff of 9.2e-05 s⁻¹ and a kon of 110000 M⁻¹ s⁻¹.
Taken in the same sequence, the figures for B7 were 1.1 nM, 0.00031 s⁻¹ and 270000 M⁻¹ s⁻¹.
Taken in the same sequence, the figures for B8 were 6.3 nM, 0.005 s⁻¹ and 800000 M⁻¹ s⁻¹.
For B9 the same measures were 2.5 nM, 0.0012 s⁻¹ and 470000 M⁻¹ s⁻¹.
With B10, the Kd worked out at 5 nM, the koff came to 0.0015 s⁻¹ and the kon came to 300000 M⁻¹ s⁻¹.
Taken in the same sequence, the figures for B11 were 3.4 nM, 0.00072 s⁻¹ and 210000 M⁻¹ s⁻¹.
